In patent publication US20200147178A1 (SYNERKINE PHARMA B V, published 2020):

Target: the molecule itself
Test: HP-SEC, self-association
Protocol: To determine the molecular weight of the IL4-IL10 fusion protein, a High Performance Size Exclusion Chromatography (HP-SEC) assay was performed. The gel filtration (BioSuite 125 4 μm UHR SEC Column; Waters; Cat #186002161) was performed on a High-Performance Liquid Chromatography System (Shimadzu) with 50 mM phosphate buffer containing 0.5 M NaCl as mobile phase. The column was calibrated prior to the run using a protein mix of thyroglobulin, bovine serum albumen, carbonic anhydrase, myoglobulin, and ribonuclease. The IL4-IL10 fusion protein purified by cation exchange was obtained by pooling and concentrating the chromatography fractions with the highest IL4-IL10 fusion protein content (2 ml of pooled fractions was concentrated to 100 μl, containing 2 μg of IL4-IL10 fusion protein). Fifty μl of 20 μg/ml of pooled IL4-IL10 fusion protein was injected and ran trough the column at a flow rate of 0.35 ml/min and under a pressure of 35 bar. Fractions of 175 μl were collected and the IL4 and IL10 content was measured in the above described IL4 and IL10 ELISA (1/500 dilution). Similar runs with recombinant human IL4 (Sigma, Cat #14269) and recombinant human IL10 (Sigma, Cat #19276) were performed to compare the molecular size of the IL4-IL10 fusion protein with that of the wild-type cytokines.

B1: recombinant human IL10 (Sigma, Cat #19276) (ligand, UniProt P22301 19-178, looked up)
chain: SPGQGTQSENSCTHFPGNLPNMLRDLRDAFSRVKTFFQMKDQLDNLLLKESLLEDFKGYLGCQALSEMIQFYLEEVMPQAENQDPDIKAHVNSLGENLKTLRLRLRRCHRFLPCENKSKAVEQVKNAFNKLQEKGIYKAMSEFDIFINYIEAYMTMKIRN
notes: also called recombinant IL10; wild-type IL10
  binding result: binds

B2: IL4-IL10 fusion protein (other)
chain: HKCDITLQEIIKTLNSLTEQKTLCTELTVTDIFAASKNTTEKETFCRAATVLRQFYSHHEKDTRCLGATAQQFHRHKQLIRFLKRLDRNLWGLAGLNSCPVKEANQSTLENFLERLKTIMREKYSKCSSGSGGGGSGTSPGQGTQSENSCTHFPGNLPNMLRDLRDAFSRVKTFFQMKDQLDNLLLKESLLEDFKGYLGCQALSEMIQFYLEEVMPQAENQDPDIKAHVNSLGENLKTLRLRLRRCHRFLPCENKSKAVEQVKNAFNKLQEKGIYKAMSEFDIFINYIEAYMTMKIRN
modifications: glycosylated (two glycoforms on the blot, one band after PNGaseF); made with co-transfected sialyltransferase to cap the glycans with sialic acid; sites not stated
notes: On the Western blot it was reduced and denatured; also called IL4-10 fusion protein; IL4-IL10 protein
  binding result: binds
